Results as given in patent US20250313644A1 (FUTUREGEN BIOPHARMACEUTICAL BEIJING, published 2025).

Biological target: T1, human TL1A (HuTL1A) (human, UniProt O95150 57-251, limits assumed, biotin-labelled in some assays (site not stated))
T1 construct: Expressed in EXPI-293 cells and purified by Ni-NTA (His-tag); Described as a trimeric antigen; also called TL1A antigen; WT
T1 sequence: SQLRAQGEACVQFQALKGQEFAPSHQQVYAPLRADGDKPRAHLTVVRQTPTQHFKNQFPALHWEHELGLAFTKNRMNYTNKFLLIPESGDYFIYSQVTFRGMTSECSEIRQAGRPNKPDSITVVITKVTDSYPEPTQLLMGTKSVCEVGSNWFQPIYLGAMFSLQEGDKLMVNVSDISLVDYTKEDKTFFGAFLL
Test: ELISA: biotin-HuTL1A on streptavidin plate, antibody diluted at pH 5.8, HRP-anti-human Fc, OD450
Experimental: Corresponding antibodies were added to specific wells, and the antibodies were diluted with sodium dihydrogen phosphate-citrate buffer at pH 7.4, pH 6.0, pH 5.8, or pH 5.6. Binding assay was carried out at room temperature for 30 minutes. After the incubation, the excess antibodies were removed and the wells were washed by PBST. HRP-anti-Human Fc (Sino Biological) was then added into each well and incubated for 30 minutes to detect the bound antibody. The substrate TMB was finally added to develop color for 5-10 minutes. The color development reaction was terminated with 1M sulfuric acid. OD450 nm was recorded on a microplate reader, and the data were processed and fitted by 4 parameter logistic regression.

B1: M701-4007 (antibody, human IgG1, kappa, L234A L235A, V domains shown)
VH: ELQLQESGPGLVKPSETLSLTCAVSGVSFSDYHWAWIRQPPGKGLEWIGDINHRGHTNYNPSLKSRVTVSIDTSKNQFSLKLSSVTAADTAVYFCARDFPNFIFDFWGQGTLVTVSS
VL: DIQLTQSPGTLSLSPGERATLSCRASQSVSTYLAWYQQKPGQAPRLLIYGASKRATGIPDRFSGSGSGTDFTLTISRLEPEDFAVYYCQQYGDSPLTFGQGTKVEIKR
notes: Fc-engineered IgG1
- EC50 (read off the curve): ~0.7 nM
